The text below walks through data of PMC2877795, “Laminin chain assembly is regulated by specific coiled-coil interactions” (Journal of Structural Biology, 2010).

Common to all, as to test: native gel or EMSA; mixtures of one α, one β and one γ chain fragment; 10% non-denaturing PAGE (acid gels for basic complexes); mixtures reduced, heated to 70 °C for 5 min and cooled; run overnight at 50 V, room temperature, no cooling; Coomassie; bands confirmed by in-gel trypsin digestion and mass spectrometry
What all share (conditions): both partners purified

Experiment [1] has as its target T1, β1γ1 complex of the recombinant mouse laminin coiled-coil fragments (mouse, UniProt P02469 1561-1786; P02468 1362-1607).
T1 construct: two residues (GlySer) left from the protease recognition site after thrombin cleavage; laminin β1 chain, mouse, residues 1561-1786 of the native chain; as m6; laminin γ1 chain, mouse, residues 1362-1607 of the native chain; as m9; heterodimer by AUC; in the αβγ tests all three chains were mixed, the βγ complex was not isolated beforehand; source: mixture of the purified E. coli fragments; not …
T1 sequence 1: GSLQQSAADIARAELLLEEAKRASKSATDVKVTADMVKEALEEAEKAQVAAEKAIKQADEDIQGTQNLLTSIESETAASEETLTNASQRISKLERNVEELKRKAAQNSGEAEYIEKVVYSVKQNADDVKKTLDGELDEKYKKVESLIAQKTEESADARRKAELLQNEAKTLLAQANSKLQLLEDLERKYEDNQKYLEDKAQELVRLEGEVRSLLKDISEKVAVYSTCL
T1 sequence 2: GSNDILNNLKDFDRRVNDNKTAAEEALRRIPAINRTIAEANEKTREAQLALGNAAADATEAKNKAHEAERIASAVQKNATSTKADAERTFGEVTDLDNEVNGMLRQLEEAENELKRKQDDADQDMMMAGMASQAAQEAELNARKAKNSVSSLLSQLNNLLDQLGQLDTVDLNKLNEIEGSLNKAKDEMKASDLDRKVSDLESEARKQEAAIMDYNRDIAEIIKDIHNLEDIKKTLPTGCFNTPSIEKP

In experiment [2] the target is T2, β2γ1 complex of the recombinant mouse laminin coiled-coil fragments (mouse, UniProt Q61292 1575-1799; P02468 1362-1607).
T2 construct: two residues (GlySer) left from the protease recognition site after thrombin cleavage; laminin β2 chain, mouse, residues 1575-1799 of the native chain; as m7; laminin γ1 chain, mouse, residues 1362-1607 of the native chain; as m9; in the αβγ tests all three chains were mixed, the βγ complex was not isolated beforehand; source: mixture of the purified E. coli fragments; not shown: 6xHis, …
T2 sequence 1: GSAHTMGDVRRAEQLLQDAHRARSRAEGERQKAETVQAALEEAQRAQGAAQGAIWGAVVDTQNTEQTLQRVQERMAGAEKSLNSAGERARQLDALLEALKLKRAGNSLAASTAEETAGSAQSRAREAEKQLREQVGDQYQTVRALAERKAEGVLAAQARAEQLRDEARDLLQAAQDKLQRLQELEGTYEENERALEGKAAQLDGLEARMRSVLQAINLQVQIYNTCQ
T2 sequence 2: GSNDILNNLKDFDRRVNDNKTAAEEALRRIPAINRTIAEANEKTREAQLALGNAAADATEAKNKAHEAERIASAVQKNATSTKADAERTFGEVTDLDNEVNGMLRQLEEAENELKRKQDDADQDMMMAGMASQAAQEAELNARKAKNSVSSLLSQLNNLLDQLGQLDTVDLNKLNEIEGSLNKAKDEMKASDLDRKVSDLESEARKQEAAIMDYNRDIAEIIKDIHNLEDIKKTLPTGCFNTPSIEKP

In experiment [3] the target is T3, β2γ3 complex of the recombinant mouse laminin coiled-coil fragments (mouse, UniProt Q61292 1575-1799; Q9R0B6 1344-1581).
T3 construct: two residues (GlySer) left from the protease recognition site after thrombin cleavage; laminin β2 chain, mouse, residues 1575-1799 of the native chain; as m7; laminin γ3 chain, mouse, residues 1344-1581 of the native chain; as m11; in the αβγ tests all three chains were mixed, the βγ complex was not isolated beforehand; source: mixture of the purified E. coli fragments; not shown: 6xHis, …
T3 sequence 1: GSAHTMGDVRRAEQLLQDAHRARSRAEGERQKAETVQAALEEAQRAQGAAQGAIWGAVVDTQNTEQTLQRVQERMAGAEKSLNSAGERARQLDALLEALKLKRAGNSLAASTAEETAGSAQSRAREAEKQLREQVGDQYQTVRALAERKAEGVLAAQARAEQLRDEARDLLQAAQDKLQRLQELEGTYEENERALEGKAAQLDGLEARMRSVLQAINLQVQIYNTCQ
T3 sequence 2: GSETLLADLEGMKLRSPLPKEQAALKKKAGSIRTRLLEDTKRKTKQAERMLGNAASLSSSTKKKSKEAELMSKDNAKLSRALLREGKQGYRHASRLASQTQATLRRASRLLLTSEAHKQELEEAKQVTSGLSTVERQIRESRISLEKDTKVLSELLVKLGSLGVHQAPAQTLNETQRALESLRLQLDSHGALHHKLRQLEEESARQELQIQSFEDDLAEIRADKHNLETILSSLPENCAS

Experiment [4] concerns the target T4, β1γ3 complex of the recombinant mouse laminin coiled-coil fragments (mouse, UniProt P02469 1561-1786; Q9R0B6 1344-1581).
T4 construct: two residues (GlySer) left from the protease recognition site after thrombin cleavage; laminin β1 chain, mouse, residues 1561-1786 of the native chain; as m6; laminin γ3 chain, mouse, residues 1344-1581 of the native chain; as m11; in the αβγ tests all three chains were mixed, the βγ complex was not isolated beforehand; source: mixture of the purified E. coli fragments; not shown: 6xHis, …
T4 sequence 1: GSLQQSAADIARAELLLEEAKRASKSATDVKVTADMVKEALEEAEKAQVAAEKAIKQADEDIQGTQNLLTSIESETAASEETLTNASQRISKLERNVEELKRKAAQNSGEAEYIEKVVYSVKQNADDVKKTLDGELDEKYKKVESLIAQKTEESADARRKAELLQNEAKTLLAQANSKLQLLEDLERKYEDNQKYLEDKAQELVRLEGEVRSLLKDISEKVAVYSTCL
T4 sequence 2: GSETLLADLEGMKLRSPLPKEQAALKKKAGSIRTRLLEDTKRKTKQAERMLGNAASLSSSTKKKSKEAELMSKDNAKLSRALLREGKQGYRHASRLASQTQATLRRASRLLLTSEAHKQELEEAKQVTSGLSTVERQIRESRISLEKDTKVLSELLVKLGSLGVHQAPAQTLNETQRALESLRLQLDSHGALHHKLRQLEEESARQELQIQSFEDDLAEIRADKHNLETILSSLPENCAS

B1: recombinant mouse laminin α5 chain C-terminal coiled-coil fragment (2525–2748) (domain or fragment)
chain: GSNAYSSILQAVQAAEDAAGQALRQASRTWEMVVQRGLAAGARQLLANSSALEETILGHQGRLGLAQGRLQAAGIQLHNVWARKNQLAAQIQEAQAMLAMDTSETSEKIAHAKAVAAEALSTATHVQSQLQGMQKNVERWQSQLGGLQGQDLSQVERDASSSVSTLEKTLPQLLAKLSRLENRGVHNASLALSANIGRVRKLIAQARSAASKVKVSMKFNGRSGVR
notes: two residues (GlySer) left from the protease recognition site after thrombin cleavage; laminin α5 chain, mouse, C-terminal coiled-coil fragment, residues 2525-2748 of the native chain (224 residues); source: E. coli JM109(DE3), purified (Ni2+-Sepharose, denaturing, 8 M urea), 6xHis tag removed by thrombin; not shown: 6xHis, N-terminal, cleaved
As to B1, the binding result in experiment [1], in experiment [2] and in experiment [3] was “binds” throughout.

B2: recombinant mouse laminin α2 chain C-terminal coiled-coil fragment (1924–2145) (domain or fragment)
chain: GSYSNIKDYIDEAEKVAREAKELAQGATKLATSPQGLLKEDAKGSLQKSFRILNEAKKLANDVKGNHNDLNDLKTRLETADLRNSGLLGALNDTMDKLSAITNDTAAKLQAVKEKAREANDTAKAVLAQVKDLHQNLDGLKQNYNKLADSVAKTNAVVKDPSKNKIIADAGTSVRNLEQEADRLIDKLKPIKELEDNLKKNISEIKELINQARKQANSIKVSVS
notes: two residues (GlySer) left from the protease recognition site after thrombin cleavage; laminin α2 chain, mouse, C-terminal coiled-coil fragment, residues 1924-2145 of the native chain (222 residues); source: E. coli JM109(DE3), purified (Ni2+-Sepharose, denaturing, 8 M urea), 6xHis tag removed by thrombin; not shown: 6xHis, N-terminal, cleaved; pPEP-T leader (short C-terminal fragment of the …)
Regarding B2, the binding result in experiment [1], in experiment [4] and in experiment [2] was “binds” each time.

B3: recombinant mouse laminin α1 chain C-terminal coiled-coil fragment (1911–2125) (domain or fragment)
chain: GSHVHSNIQTLTEEAEMLAADAHKTANKTDLISESLASRGKAVLQRSSRFLKESVSTRRKQQGITMKLDELKNLTSQFQESMDNIMKQANDSLAMLRESPGGMREKGRKARELAAAANESAVKTLEDVLALSLRVFNTSEDLSRVNATVQETNDLLHNSTMTTLLAGRKMKDMEMQANLLLDRLKPLKTLEENLSRNLSEIKLLISRARKQVASIKV
notes: two residues (GlySer) left from the protease recognition site after thrombin cleavage; laminin α1 chain, mouse, C-terminal coiled-coil fragment, residues 1911-2125 of the native chain (215 residues); source: E. coli JM109(DE3), purified (Ni2+-Sepharose, denaturing, 8 M urea), 6xHis tag removed by thrombin; not shown: 6xHis, N-terminal, cleaved; pPEP-T leader (short C-terminal fragment of the …)
For B3, the binding result in experiment [1] and in experiment [2] was “binds” in each case.
